Source: US12187807B2, “Antibody molecules to C5AR1 and uses thereof” (Visterra, Inc., priority 2020, dated 2025)
Where a chain is given by its changes, count along the chain named.

B1: clone 11v2: anti-C5aR1 Site II antibody; VH SEQ ID NO: 482, VL SEQ ID NO: 542 (antibody, V domains shown)
VH: QVQLQQSGPELVKPGASVKISCKASGYSFSSSWMNWVKQRPGKGLEWIGRISPGDGDTRYSGKFKGKATLTADKSSSTAYMQVTSLTSEDSAIYFCVRFLITSTRYVMDYWGQGTTVTVSS
VL: DVVMTQTPLSLPVSLGDQASISCRSSQSLVHSNGNTYLHWYLQKPGQSPKLLIYKVSNRFSGVPDRFSGSGSGTDFTLKISRVEAEDLGVYFCSQSTLVPPTFGGGTKLEIK
B2: Clone_336_v2-1 (antibody, V domains shown)
VH: QVQLKQSGPGLVQSSQSLSITCTVSGFSLISYGVHWVRQSPGKGLEWLGVIWSGGSTDYNAAFKSRLSITKDNSKSQVFFKMNSLQADDTAIYYCAKNSQLGNAMDYWGQGTTVTVSS
VL: DIVMSQSPSSLAVSAGEKVTMSCKSSQSLLSSRTRKNYLAWYQQKPGQSPKLLIYWASTRESGVPDRFTGSGSGTDFTLTISSVQAEDLALYFCNQSYDLLTFGAGTKLEIK
B3: clone 336v2-1: exemplary anti-C5aR1 antibody, Table 1C (antibody, V domains shown)
VH: B2 VH
VL: B2 VL
B4: clone 322: anti-C5aR1 Site I antibody; VH SEQ ID NO: 491, VL SEQ ID NO: 551 (antibody, V domains shown)
VH: QVQLQQSDAALVKPGASVKISCKASGHTFTDHAIHWVKQRPEQGLEWIGYISPGNGDIKYNDKFKGKATLTADKSSSTAYMQLNSLTPEDSAVYFCKGPLFVRGQYYITMDYWGQGTTVTVSS
VL: DIVMTQSQKFMSTTVGDRVSITCKASQNVGAAVVWYQQKPGQSPKLLIYSASYRYSGVPDRFTGSGSGTDFTLTISNMQSEDLADYFCQQYNSFPLTFGGGTKLEIK
B5: Clone_317v2-1 (antibody, V domains shown)
VH: QVQLQQPGAELVMPGASVKLSCKASGYTFTSYWMHWVKQRPGQGLEWIGEIDPSDSYTNYNQKFKGKATLTVDKSSSTAYMQLSSLTSEDSAVYYCARVAYYSNFGGFAYWGQGTTVTVSS
VL: DIVMTQSPSSLSVSAGEKVTMSCKSSQSLLKSGNQKNYLAWHQQKPGQPPKLLIYGASTRESGVPDRFTGSGSGTDFTLTISSVQAEDLAVYYCQNDHSHPYTFGGGTKLEIK

Experiments:
[1] = target: T1, biotinylated peptide representing ECL2 of C5aR1 (Homo sapiens, UniProt P21730); test: Epitope mapping by biolayer interferometry, ECL2 peptide; type: binding; parameters: key: “+” indicates binding to the listed peptide; “−” indicates lack of binding to the listed peptide; conditions: biolayer interferometry, 10 μg/mL of antibody, biotinylated peptide on streptavidin biosensor
T1 construct: cyclic ECL2 peptide spanning from residues R175 to C188
Description: (§1) The epitope mapping was undertaken, using biolayer interferometry, on a series of exemplary anti-C5aR1 antibodies generated as described in Example 1. Briefly, for each antibody, biotinylated peptides representing ECL2, the N-terminus with tyrosine sulfation, and the N-terminus without tyrosine sulfation, were immobilized in a streptavidin biosensor. Subsequently, the biosensor was exposed to 10 μg/mL of antibody to detect antibody binding to the immobilized peptide. The results of the epitope mapping study are shown in Table 4 (“+” indicates binding to the listed peptide; “−” indicates lack of binding to the listed peptide).

[2] = target: T2, C5aR1 (C5aR1-U937 cells) (Homo sapiens, UniProt P21730, K279N); test: C5a induced chemotaxis (transwell), C5aR1-U937 cells; type: cell-based; conditions: C5aR1-U937 cells; 1, 10, or 100 nM antibody; C5a 10^−6 to 10^−9.5 M
T2 construct: expressed in transfected cells
T2 sequence (P21730 with tags, fused parts or gaps K279N limits assumed): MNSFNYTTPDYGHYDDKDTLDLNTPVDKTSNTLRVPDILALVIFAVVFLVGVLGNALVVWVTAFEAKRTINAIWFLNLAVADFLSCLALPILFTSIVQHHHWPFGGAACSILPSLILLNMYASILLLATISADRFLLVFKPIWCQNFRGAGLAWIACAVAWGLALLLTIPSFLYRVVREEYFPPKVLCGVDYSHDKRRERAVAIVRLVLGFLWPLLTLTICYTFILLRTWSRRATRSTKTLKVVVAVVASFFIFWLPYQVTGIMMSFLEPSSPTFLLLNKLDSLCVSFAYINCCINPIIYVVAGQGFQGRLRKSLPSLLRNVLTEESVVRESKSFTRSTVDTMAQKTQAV
Description: (§2) One of the primary mechanisms by which neutrophils migrate to the site of inflammation is by chemotaxis induced by a C5a/C5adesArg gradient is detected by C5aR1 signaling. Anti-C5aR1 antibodies were thus assessed in a chemotaxis assay for their ability to block C5a induced migration of neutrophils. The assay involved cell migration in a double chamber well separated by filters. The cells and inhibitors were applied into the upper chamber and the lower chamber was filled with the chemoattractant, causing the cells to migrate to the lower chamber. The inhibition activity was evaluated by counting the migrated cell numbers. Specifically, a titration of C5a was added to the bottom chamber a 96 transwell plate. Cells expressing human C5aR1 (C5aR1-U937 cells or human neutrophils) were incubated with or without antagonist and then seeded into the top chamber of the transwell plate. The cells were incubated for 2 hours. Cells that migrated to the bottom chamber were quantified using the CyQUANT cell proliferation kit following the manufacturer's protocol. The assay was performed using engineered cells stably expressing C5aR1 as well as using human neutrophils.
as §2, with “Anti-C5aR1” for “One of the primary mechanisms by which neutrophils migrate to the site of inflammation is by chemotaxis induced by a C5a/C5adesArg gradient is detected by C5aR1 signaling. Anti-C5aR1”, “were” for “were thus”
In a first experiment, C5aR1-U937 cells were seeded into the top chamber of a 96 Transwell plate in the presence of no antibody (antagonist), or of 1, 10, or 100 nM antibody (antagonist).

[3] = target: T3, biotinylated peptide representing the N-terminus of C5aR1 with tyrosine sulfation (Homo sapiens, UniProt P21730); test: Epitope mapping by biolayer interferometry, N-terminus with tyrosine sulfation; type: binding; parameters: key: “+” indicates binding to the listed peptide; “−” indicates lack of binding to the listed peptide; conditions: 10 μg/mL of antibody, biotinylated peptide on streptavidin biosensor
T3 construct: the N-terminus with tyrosine sulfation
T3 sequence (P21730 1-37): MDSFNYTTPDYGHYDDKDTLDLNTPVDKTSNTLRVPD
Description: as §1

[4] = target: T4, C5aR1 (human neutrophils) (Homo sapiens, UniProt P21730); test: C5a induced calcium flux (Fluo-4), human neutrophils; type: cell-based
T4 construct: neutrophils isolated from whole blood; host or cells: human neutrophils (cryopreserved, or isolated from whole blood)
T4 sequence (P21730 1-350): T2 sequence (P21730 with tags, fused parts or gaps K279N limits assumed) with N2D, N279K
Description: (§3) Intracellular calcium is released into the cytoplasm by stimulation of GPCRs and acts as a second messenger of GPCR signaling, commonly used to quantify GPCR agonism and antagonism. As such, calcium flux assays using calcium sensitive dye were utilized to detect cytosolic changes in calcium concentration. […] The dye penetrated the cell membrane and became active once inside the cell. The active form of the dye became fluorescent after binding to intracellular calcium and the fluorescence was used to determine C5aR1 signaling in response to C5a addition. Specifically, stable C5aR1-U937 cells or neutrophils isolated from whole blood were stained with Fluo-4 Direct Calcium Assay kit from Thermo Fisher for 1 hour at 37° C. Next, antibody or antagonist was incubated with the cells for 30 minutes. The basal fluorescence with an excitation at 494 nm and emission at 516 nm was measured for 15 seconds. C5a was added to the cells and the fluorescence was measured over a span of four minutes. The basal read from before C5a stimulation and the max signal after C5a stimulation were used to calculate the response ratio. The potency of the antibodies was assessed for their ability to inhibit intracellular calcium release in C5aR1 expressing cells in the presence of C5a. Similar to the chemotaxis assay, the calcium flux assays were performed using engineered cells stably expressing C5aR1 as well as using human neutrophils.

[5] = target: T5, biotinylated peptide representing the N-terminus of C5aR1 without tyrosine sulfation (Homo sapiens, UniProt P21730); test: Epitope mapping by biolayer interferometry, N-terminus without tyrosine sulfation; type: binding; parameters: key: “+” indicates binding to the listed peptide; “−” indicates lack of binding to the listed peptide; conditions: 10 μg/mL of antibody, biotinylated peptide on streptavidin biosensor
T5 construct: the N-terminus without tyrosine sulfation
T5 sequence (P21730 1-37 limits assumed): T3 sequence (P21730 1-37)
Description: as §1

[6] = target: T2, C5aR1 (C5aR1-U937 cells); test: C5a induced calcium flux (Fluo-4), C5aR1-U937 cells; type: cell-based
Description: as §3

[7] = target: T6, C5aR1 (Homo sapiens, UniProt P21730); test: GeneBLAzer reporter assay (C5aR1 mediated Gα signaling); type: cell-based; parameters: host or cells: vendor's C5aR1 GeneBLAzer reporter cell line; conditions: 10 nM of antibody, 10 nM C5a
T6 sequence (P21730 1-350): T2 sequence (P21730 with tags, fused parts or gaps K279N limits assumed) with N2D, N279K
Description: In addition, a GeneBLAzer reporter assay was used, which mimics the calcium flux assay. The GeneBLAzer assay kit and C5aR1 cell line were commercially available from Thermo Fisher (Catalog #K1544). The assay was performed as recommend by the manufacturer. Briefly, antibodies or antagonists were incubated for 30 minutes at 37° C. C5a was then added to the cells and incubated at 37° C. for an additional 4-5 hours. Beta-lactamase substrate was then added and incubated for 2 hours at room temperature. Fluorescent measurements for each well with an excitation/emission of 409/460 (blue) and 409/530 (green) were measured. An increase in the blue to green ratio was proportional to C5aR1 activation and was used to calculate the percent of activation for the cells in each well.
Exemplary anti-C5aR1 antibodies generated as described in Example 1 were screened for antagonist activity against human C5aR1 using the GeneBLAzer assay, as described in Example 1. Briefly, cells were pre-incubated with 10 nM of antibody followed by addition of 10 nM C5a. The engineered induction of beta-lactamase expression by C5a-C5aR1 signaling was measured using the BLA substrate and calculating the ratio of blue and green fluorescence.

[8] = target: T7, human C5aR1 transiently expressed on the surface of Expi293 cells (Homo sapiens, UniProt P21730, K279N); test: Cell surface binding (flow cytometry), Expi293 cells transiently expressing human C5aR1; conditions: staining with 100 nM of antibody
T7 construct: expressed in transfected cells; host or cells: Expi293 cells, transient
T7 sequence (P21730 with tags, fused parts or gaps K279N limits assumed): T2 sequence (P21730 with tags, fused parts or gaps K279N limits assumed)
Description: (§4) Follow up screening to ensure specificity was performed by measuring cell surface binding to cells expressing, for example, human C5aR1, human C5aR2, mouse C5aR1, and control cells that were mock transfected. Briefly, cell surface binding was performed on various C5aR1 expressing cell lines (transiently expressed Expi293 cells, stable C5aR1-U937 cells, and neutrophils isolated from whole blood). Briefly, a titration of antibody diluted in flow buffer (1×PBS with 2% fetal bovine serum) was incubated with cells for 1 hour at 4° C. Cells were washed twice with flow buffer. Anti-human-APC secondary antibody was diluted 1:400 in flow buffer and incubated with cells for 30 minutes. Cells were washed twice with flow buffer and resuspended in 100 μL of flow buffer. Fluorescence was measured using the iQue Screen Plus flow cytometer.

[9] = tested on: control cells that were mock transfected; test: Cell surface binding (flow cytometry), mock transfected Expi293 control cells; conditions: staining with 100 nM of antibody
Description: as §4

Molecule | Binding to Cyclic ECL2 peptide [1] | Binding to Sulfated N-terminal peptide [3] | Binding to Non-sulfated N-terminal peptide [5] | antagonism of C5aR1 compared to reference antibodies or to Avacopan [7] | Cell surface binding, Human C5aR1, geometric mean fluorescent intensity [8] | Cell surface binding, Mock transfection, geometric mean fluorescent intensity [9] | also measured
B1 | + | − | − | improved |  |  | inhibition of cell chemotaxis [2]: strongest effects; inhibition of C5a induced calcium efflux [4]: inhibition of the C5a induced calcium efflux; inhibition of C5a induced intracellular calcium flux [6]: inhibition of the C5a induced calcium efflux
B2 |  |  |  |  | 223,156 | 5,007 Clone_511v2 | 
B3 | + | − | − |  |  |  | 
B4 |  |  |  | comparable |  |  | 
B5 |  |  |  |  | 8,106 | 4,535 Clone_507 | 
